Reference: a protein production outcome set (Wang et al. 2014)

Assay: label from the status in PepcDB records

In the case of “MAVGDQTEQNYLPKKKKSETEDDKRRKKIVPGSLLKAVVRPGGGDSSPVDGDQVIYHCTVRTLDGVVVESTRSESGGRGVPIRDVLGNSKMILGLLEGIPTMHKGEIAMFKMKPEMHYAEIDCPVSAPENFPKDDELHFEIELLDFSKAKIASDDLGVIKKILNEGEGWESPREPYEVKARISAKSGDGHVIFSHTEEPYFFTFGKSEVPKGLEIGIGTMARKEKAVIYVRKQYLTESPLLHIDQDLEEVHFEVELVHFIQVRDMLGDGRLIKRRIRDGRGEFPMDCPLQDSRLSVHYKGMLLNEEKTVFYDSKIDNNDQPLEFSSGEGLVPEGFEMCTRLMLPGEIALVTCPPDYAYDKFPRPPGVSEGAHVQWEIELLGFETPRDWTGLNFQSIMDEADKIRSTGNRLFKEGKFELAKAKYEKVLREFNHVNPQDEDEGKIFGDTRNMLHLNVAACLLKMGEWRKSIETCNKVLEAKPGHVKGLYRRGMAYIAGGEYDDARNDFNMMIKVDKSSEADATAALLKLKQKEQEAESKARKQFKGLFDKRPGEITEVGSEIREESKTIEEVDETKDNDDDETLEEEGATTVSTERKRKWSEKAWPFLKNVMLQIGIQLGVVLIGILIFQFVSAKFT”, the protein production is reported as “failed”.

In the case of “TIDRGIQTQIESLVERWNSEFKRSDIRNLAILVIDIRTNQAIAYCGNVHFDKEQSGNQVDVIRSPRSTGSILKPFLYYAMLQEGEILPNTLLPDIPVNINGFTPQNFNLQFEGAVPASEAIARSLNIPSVTMLQRYGVPKFHSFLKQIGLTTLNRPSSHYGLSLILGGAEATLWDITSAYANMGRSLNRLPQFPCTLLLSDSTSVHRPSFQSGAVWQTFDAIKEVNRPEEIDWRTIPSMQTIAWKTGTSYGFRDAWAVGVTPKYAVGVWVGNATGEGKPGLVGARTAGPVLFDVFNLL”, the protein production is reported as “failed”.

For “MACFSGTVYLVACRFRSRGNSMPYKISQYVLDDATPDDSGIVQGDMDVFIHQLMTLMEASQQGYALFDGNDELRFANSAFRAALGIGRHEFPSWVDMMRSGYRTTTGTSIETSDFELWLRSAKTRRGKLPFRTIETSLKDGRWMLTTETTLPGGWMLCVITDVSELGIELRDLRQERDRALKSALSDELTGLGNRRYAMDTLNHLLGPNKAQALAVIIMDIDHFKSVNDRFGHAYGDLVLKDFAARLSATAGRDDLLGRIGGEEFLLVLSGSRMHSADSLMRQLLSSLAQASPLGDRPDFRYSCSAGIAYANPGESASEVLRHADTALYEAKNTGRNRYVIYATVP”, the protein production was “failed”.

In the case of “MSEVNKKVQDGVDDYLEEEDFGQLLEAFDKSREEATTEGVIVEIKNDEVYVDIGKKSEGILALSEIQGDNSKLLFNVGDSIKVAVMGSRGGRSLLSHKKALRKEKVIEFIKNYQENQDDIFTVKVVGKNKGGLIVVDENDVEFFLPKSQYGFKETNNIIGKTFKVKIIKIDKDEQSIIVSRKKTLDDERRKRKELINNVAQQEDLIEGIVKKITTYGMFVDVGGVDGLVHYSEISYKGPVNPGTLYKEGDKVPVKVIKYDKERKHLSLSIKAALPDPWSEIKDTLDIGDTIKVIVSNIEPYGAFVDLGNDIEGFLHISEISWDKNIKNPKDYINKGQEIDVEVIEINPNERRLRVSLRNLLSRPFDEFMKSYKIADVVEGEITSVTSFGAFVKLGGIEGLLHNEDASWDRNDKCKDKFSQGDKIKVKIIKIDEENQKISLSTKELSSSPVQEYAKIHKVGDIVKGAIRDIKDFGVFVELSKNVDALIHKEDISTSMLENLKIGDDIEAAIVFIDEKKNRIRLSVKNLVRIKEREVLNEINNDDKVTLGDIIKDQLALEHHHHHH”, the protein production is reported as “not failed”.

In the case of “MAVVASAPGKVLMTGGYLVLEKPNAGLVLSTNARFYAIVKPINEEVKPESWAWKWTDVKLTSPQLSRESMYKLSLNHLTLQSVSASDSRNPFVEHAIQYAIAAAHLATEKDKESLHKLLLQGLDITILGSNDFYSYRNQIESAGLPLTPESLGTLAPFASITFNAAESNGANSKPEVAKTGLGSSAAMTTAVVAALLHYLGVVDLSDPCKEGKFGCSDLDVIHMIAQTSHCLAQGKVGSGFDVSCAVYGSQRYVRFSPEVLSFAQVAVTGLPLNEVIGTILKGKWDNKRTEFSLPPLMNLFLGEPGSGGSSTPSMVGAVKKWQMSDPEKARENWQNLSDANLELETKLNDLSKLAKDHWDVYLRVIKSCSVLTSEKWVLHATEPINEAIIKELLEAREAMLRIRILMRQMGEAASVPIEPESQTQLLDSTMSAEGVLLAGVPGAGGFDAIFAITLGDSGTKLTQAWSSHNVLALLVREDPHGVCLESGDPRTTCITSGVSSIHLE”, the protein production is reported as “failed”.

With “MTDFPTSLTAPKKGCEGCTGSPELGFSFDYAYQPIVNLHDQSIFAHEALVRGPNGEGAMSVLNQVTDQNRYRFDQKCRTTAIAGAAKLGMTERLSINFLPNAVYRPELCIRSTLEAAKQHDFPIERLIFETIESEHVDNNNHLSNILREYREFGFMTAIDDFGAGYSGLTLLADFQPDLIKLDMNLVRDIHRDRARQAIVRGVVTMCKDLGIKLIAEGIEHIEERDFLADCGISLMQGYLFAKPAFKALAQIAPEAWQKP” the protein production was “not failed”.

With “GLTNFTRDAEVLYQCAWIHDVMGLETEAMPYYEQAIANGLEGESLCGAYIGLGSTYRCIGEYDKAITVLETGLQQFPGNDVMKVFLSLAKFNVNDHESAMKLLLETVVK” the protein production was “failed”.

For “MEKILDNIDKSMNIIISLFTIYNLIRGFWLNKNKKQLEKQREDLQKKLHQQNISNNNNISNSFNTTIHNETNIKNEIIDINQDLKNTLKSRNTSRNIAYIFTIFLFVLSFILYVIHYFKEQFKGYTIADFINSFIPSFEKLTDILTISYKSAIIVLLIINLIIAVLVILISMLKLKLKWRVAVSSLLYGILNYYVLISASSIDSKDIHYSIQEPKLSFIISFLYLMVGFITAFFSNYILYSYLFNSEFEDELFNQTIKRFFIWLALTVLFAFLSFINYHNGLQITLNFIKNLLNLI”, the protein production was “failed”.

For “ETQPESAAFTAPSTDNPIRINFNENPLGMSPKAQAAARDAVVKANRYAKNEILMLGNKLAAHHQVEAPSILLTAGSSEGIRAAIEAYASLEAQLVIPELTYGDGEHFAKIAGMKVTKVKMLDNWAFDIEGLKAAVAAYSGPSIVYLVNPNNPTGTITPADVIEPWIASKPANTMFIVDEAYAEFVNDPRFRSISPMITQGAENIILLKTFSKIHAMAGMRVGYAVAHPTVIALMGRYVAGEKINFSGVDAALASMNDSAFITYSKKSNDVSRQILLKALEDLKLPYLPSEGNFVFHQLVVPLKDYQTHMADAGVLIGRAFPPADNWCRISLGTPQEMQWVADTMREFRKKSWI”, the protein production was “not failed”.

For “TFGEKLLNAASTRGRLCVGIDPHESLLTSWGLPVNVDGLAEFSRACVEAFADTVALVKPQVAFYERFGSAGFAILEETIQTLRERGCLVVSDAKRGDIGSTMAGYASAWLDPASPLSSDAVTVSPYLGFHSLDPVFELAEQHGRGVFVLAATSNPEARELQDQQNADGVSISQQIVDQAAALNAPYMAQGKAGNIGVVIGATLSKPPRLSTLGGAILMPGVGAQGGTASDVDEIAGDMAHLAFPNVSRSILATGPDIAEMKNSVAKNAADFPGFP”, the protein production was “not failed”.

With “AIAASLSDQSGSIGSEQTRPSGAIPVESLPPQALEQLIASLQQEVEQLADALQQLNFANQRWTLCKQSIEAFAEETTRVDLPGAQSRATDAISSTASAKPETSVEVNQNQRLLVPLSRSLYVLGRVINPERCLIDIGTGYHVERKLADAAEFFDRRLKHVRGSMRQLTLKIDQNQQQMQTIREILVRKLAGAQQAAEHT” the protein production was “failed”.

In the case of “MHILYFLFPKVTFNSFSTPIFFTLISFYSLVTFFPLLSLFIRTSIPSNLINMIIQNSIKGVFVHLDVKMRFFLDFYFLNSLICYSNYIVPFLLAHTLNLITPSVLTTVECDF”, the protein production is reported as “failed”.

With “MSGYFEILAILTCAVFVVWLFRRLNLPAILAYLVAGMLVGQHGLNLVQDQVDYDHFAELGIVFLLFTLGLEFSLPRLMAMRHLVVSVGSLQVGISLLVFIIAGLFFGLSFSEAFVVGSILALSSTAIVIRQLSETGAMKRKSGQLSVAILLFQDVAVVPLLIIIPMLAMDSQSSMVWALMLAMVKGVVVVALLLLIGKWLLPKVFNIIAQVRTDELFVLTTLLVTLLAAAFTQWFGLSMALGAFLAGMMLSESEYKHQLEADIRPYRDILLGLFFITVGMKLDVSLLISSPFSLLGLMLCFMLVKIMVIKILAVKAGESSKDAWASGLMLAQMGEFGFVLIALANQSQILPLDVASMLLGAGVISMAITPFMINNARSWALFLSQEKSPESLDLSQLPENKVLENHVVICGFGRVGQTVSRFLKQDEIDFVAIDVDPLRTQKAREAGEKVLFGSSRQTEVLNAAHLSEAKLVVIAFGDDKQSLEVIQKVRSMNEKVPILVRTRNDDQLDALQAAGANEVVPESLEGSLMLVSQVLSLTGVPFSRIMRRVQRERKNHYNHLHGFFQGEHTDMSPQAIDRIEFAHAILINDNSFSCGKSIESLNLGKMRVNVVALRRGDIECESPGKDTVLQAQDTLIIRGKPRGVEKADHYVQEGK” the protein production was “failed”.

For “MENRAHALAAGLFILLLGVATVMAVKWFSRDSVSYNHYFLVSAGGAVSGLNPEASVRYRGVNVGKVEEIYFDRENIRNIIVRIAVNHNVVLPGDIYAQLASQGITGLTYIELNDDVADAETKPLQNEARIPLRSSLIKTLSDSLEEILKNSNMAIRQISNLLNEQNQTHISSILSHLEQAVQHYDTLTGQLQKGLQTLPQLSSELTSTFKQTRQVMENTSQVLQKLNQQQGLVDNLTQGSLEMTRTLTSLNETGVAITQSAHKLDQLLNLLEDHPQSLVFGKPPALPGPGEPGFSPPQPGK”, the protein production was “failed”.

For “MVKGDITTAFIAEEYPDGFQGAVLDEPTLRRVAAAAAAMNRVAEIRRTRISGTMNNHERHVGVDWVVALQGESYHVSIAADREGSTVSFSDGSSLRVTSDWTPGQPLEHHHHHH”, the protein production was “failed”.

In the case of “NGQSDVKHIGILQYVEHPSLTATRKGFIKELAKEGYKDGKNIKIEYKNAQGDQSNIQSISEKLIKDNKLVLGIATPAAQSLTTVSTETPILFTAVTDPVSAELVKSMKKPEGLATGTSDMSPIKKQVSLLRKVMPKVKRVGIMYTTSERNSEVQVKQAKKIFQEAGIKTSVKGISSTNDVQDTAKSLMSKTEVIFVPTDNIIASSVTLLGNLSKELKVPVVGGSADMVPSGLLFSYGADYEALGRQTARQAVKILKGKDVAKVPSEYPQNLKVVVNEDMAKELGIDVSSIK”, the protein production is reported as “not failed”.

In the case of “MTLLRDHDLARAFDHASHTYDGLTALNPGYRTGLLRSARRLALPADGAGLHLLDLGCGTGASTRALLRAAPRARITAVDASAGMLRRALVKPWPARVRFLHLTAEEFATTREDEGPFDAVFAAYLFRNVTDPDAVLRAVRQLLRPGGRFAAHEYSLSGSPGHRALWSAVCRGVVIPAGTLTGDRTLYRHLRRSVVAFDTAPEFAARLTRAGLTSVRVAPVAGWQTGIVHTFLARNGGPTTTEERVL”, the protein production is reported as “failed”.

With “MESNLTYTEALLKLEEIVEQIEDDSIMLDTLTEKVMQANELIKYCETKLRTIEGDVRDVLQ” the protein production was “failed”.

In the case of “MSQTSLEPLIISIIKLQILQLWLKLIAVGWNLGSNDDELYTELWKACAGPLVEVPRYGERVFYFPQGHMEQLVASTNQGVVDQEIPVFNLPPKILCRVLSVTLKAEHETDEVYAQITLQPEEDQSEPTSLDPPLVEPAKPTVDSFVKILTASDTSTHGGFSVLRKHATECLPSLDMTQPTPTQELVARDLHGYEWRFKHIFRGQPRRHLLTTGWSTFVTSKRLVAGDAFVFLRGETGDLRVGVRRLAKQQSTMPASVISSQSMRLGVLATASHAVTTTTIFVVFYKPRISQFIISVNKYMMAMKNGFSLGMRYRMRFEGEESPERIFTGTIIGSGDLSSQWPASKWRSLQIQWDEPSSIQRPNKVSPWEIEPFSPSALTPTPTQQQSKSKRSRPISEITGSPVASSFLSSFSQSHESNPSVKLLFQDPATERNSNKSVFSSGLQCKITEAPVTSSCRLFGFDLTSKPASATIPHDKQLISVDSNISDSTTKCQDPNSSNSPKEQKQQTSTRSRIKVQMQGTAVGRAVDLTLLRSYDELIKELEKMFEIEGELSPKDKWAIVFTDDEGDRMLVGDDPWNEFCKMAKKLFIYPSDEVKKMRSKSLLGDKGTIVNLESDQRTVHV”, the protein production is reported as “failed”.

In the case of “MPHGVEVEPGVAKLTTYASKQATDMGAIYVNSKGDRIVNESNVYTTFRNAILKQADKVAYLVMDERTWKKVYDLLILHDFTPEEIKSFFENKGKRPVFVKGSLESAAEQAGIVVDELVQTVKNYQGYVQDGHDHDFGRDPKYLHQFEGETFYIIEQRLEHHHHHH”, the protein production is reported as “not failed”.
